# T1: Fc fragment SEQ ID NO: 596 (coexpressed with the M252Y/S254T/T256E heavy chains) (Homo sapiens (Human), UniProt P01857 104-328 = IgG part)
# T1 construct: Fc fragment without CH3 interface modification
# T1 chain: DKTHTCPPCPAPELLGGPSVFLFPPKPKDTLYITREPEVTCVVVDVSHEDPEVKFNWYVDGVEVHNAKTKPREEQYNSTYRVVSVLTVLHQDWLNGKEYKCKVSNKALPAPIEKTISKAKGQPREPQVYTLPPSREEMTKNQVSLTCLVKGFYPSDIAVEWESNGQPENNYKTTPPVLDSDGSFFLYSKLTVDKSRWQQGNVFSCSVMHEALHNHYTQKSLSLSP
# T2: Fc fragment SEQ ID NO: 598 (partner of the L234A/L235A/P329G heavy chains) (human, UniProt P01857 104-328 = IgG part, limits assumed)
# T2 construct: IgG1 Fc fragment without homodimer-promoting modification
# T2 chain: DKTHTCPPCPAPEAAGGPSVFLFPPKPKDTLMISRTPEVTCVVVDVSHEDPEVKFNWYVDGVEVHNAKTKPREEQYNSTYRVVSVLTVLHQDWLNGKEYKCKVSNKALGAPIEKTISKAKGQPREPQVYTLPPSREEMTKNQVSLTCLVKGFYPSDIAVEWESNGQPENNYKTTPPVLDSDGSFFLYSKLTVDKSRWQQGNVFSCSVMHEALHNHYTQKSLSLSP
# Tests used:
# [1] = molecular target: the molecule itself; experiment: SEC peak area ratio; full-length heavy chain, light chain and Fc fragment coexpressed in Expi293F, affinity purified
# [2] = molecular target: T1, Fc fragment SEQ ID NO: 596 (coexpressed …); experiment: as above
# [3] = molecular target: the molecule itself; experiment: SEC peak area ratio; full-length heavy chain, light chain and Fc fragment coexpressed in Expi293F, Protein A purified
# [4] = molecular target: T2, Fc fragment SEQ ID NO: 598 (partner of …); experiment: as above
Binder,Heteromultimer (%) [2],Heteromultimer (%) [4],Homo full-length heavy chain (%) [1],Homo full-length heavy chain (%) [3]
"Full-length heavy chain with M252Y/S254T/T256E (enhance FcRn binding), no CH3 modification (SEQ ID NO: 143), with light chain SEQ ID NO: 61 (antibody, human IgG1, kappa) heavy: QVQLQESGPGLVRPSQTLSLTCTVSGYSITSDHAWSWVRQPPGRGLEWIGYISYSGITTYNPSLKSRVTMLRDTSKNQFSLRLSSVTAADTAVYYCARSLARTTAMDYWGQGSLVTVSSASTKGPSVFPLAPSSKSTSGGTAALGCLVKDYFPEPVTVSWNSGALTSGVHTFPAVLQSSGLYSLSSVVTVPSSSLGTQTYICNVNHKPSNTKVDKRVEPKSCDKTHTCPPCPAPELLGGPSVFLFPPKPKDTLYITREPEVTCVVVDVSHEDPEVKFNWYVDGVEVHNAKTKPREEQYNSTYRVVSVLTVLHQDWLNGKEYKCKVSNKALPAPIEKTISKAKGQPREPQVYTLPPSREEMTKNQVSLTCLVKGFYPSDIAVEWESNGQPENNYKTTPPVLDSDGSFFLYSKLTVDKSRWQQGNVFSCSVMHEALHNHYTQKSLSLSP light: not shown",50.1%,–,16.3%,–
"Full-length heavy chain SEQ ID NO: 153 (L234A/L235A/P329G; no homodimer-promoting modification) with light chain SEQ ID NO: 61 (antibody, human IgG1, kappa, L234A L235A) heavy: QVQLQESGPGLVRPSQTLSLTCTVSGYSITSDHAWSWVRQPPGRGLEWIGYISYSGITTYNPSLKSRVTMLRDTSKNQFSLRLSSVTAADTAVYYCARSLARTTAMDYWGQGSLVTVSSASTKGPSVFPLAPSSKSTSGGTAALGCLVKDYFPEPVTVSWNSGALTSGVHTFPAVLQSSGLYSLSSVVTVPSSSLGTQTYICNVNHKPSNTKVDKRVEPKSCDKTHTCPPCPAPEAAGGPSVFLFPPKPKDTLMISRTPEVTCVVVDVSHEDPEVKFNWYVDGVEVHNAKTKPREEQYNSTYRVVSVLTVLHQDWLNGKEYKCKVSNKALGAPIEKTISKAKGQPREPQVYTLPPSREEMTKNQVSLTCLVKGFYPSDIAVEWESNGQPENNYKTTPPVLDSDGSFFLYSKLTVDKSRWQQGNVFSCSVMHEALHNHYTQKSLSLSP light: not shown",–,51.4%,–,22.6%
"Full-length heavy chain SEQ ID NO: 156 (L234A/L235A/P329G; Q347R/K360E/D399V/F405T/K409W) with light chain SEQ ID NO: 61 (antibody, human IgG1, kappa, L234A L235A) heavy: QVQLQESGPGLVRPSQTLSLTCTVSGYSITSDHAWSWVRQPPGRGLEWIGYISYSGITTYNPSLKSRVTMLRDTSKNQFSLRLSSVTAADTAVYYCARSLARTTAMDYWGQGSLVTVSSASTKGPSVFPLAPSSKSTSGGTAALGCLVKDYFPEPVTVSWNSGALTSGVHTFPAVLQSSGLYSLSSVVTVPSSSLGTQTYICNVNHKPSNTKVDKRVEPKSCDKTHTCPPCPAPEAAGGPSVFLFPPKPKDTLMISRTPEVTCVVVDVSHEDPEVKFNWYVDGVEVHNAKTKPREEQYNSTYRVVSVLTVLHQDWLNGKEYKCKVSNKALGAPIEKTISKAKGQPREPRVYTLPPSREEMTENQVSLTCLVKGFYPSDIAVEWESNGQPENNYKTTPPVLVSDGSFTLYSWLTVDKSRWQQGNVFSCSVMHEALHNHYTQKSLSLSP light: not shown",–,0%,–,61.5%
"Full-length heavy chain with M252Y/S254T/T256E (enhance FcRn binding) and E356K/K392D/D399K/K439E (SEQ ID NO: 147), with light chain SEQ ID NO: 61 (antibody, human IgG1, kappa) heavy: QVQLQESGPGLVRPSQTLSLTCTVSGYSITSDHAWSWVRQPPGRGLEWIGYISYSGITTYNPSLKSRVTMLRDTSKNQFSLRLSSVTAADTAVYYCARSLARTTAMDYWGQGSLVTVSSASTKGPSVFPLAPSSKSTSGGTAALGCLVKDYFPEPVTVSWNSGALTSGVHTFPAVLQSSGLYSLSSVVTVPSSSLGTQTYICNVNHKPSNTKVDKRVEPKSCDKTHTCPPCPAPELLGGPSVFLFPPKPKDTLYITREPEVTCVVVDVSHEDPEVKFNWYVDGVEVHNAKTKPREEQYNSTYRVVSVLTVLHQDWLNGKEYKCKVSNKALPAPIEKTISKAKGQPREPQVYTLPPSRKEMTKNQVSLTCLVKGFYPSDIAVEWESNGQPENNYDTTPPVLKSDGSFFLYSKLTVDKSRWQQGNVFSCSVMHEALHNHYTQESLSLSP light: not shown",0%,–,61.6%,–
"Full-length heavy chain SEQ ID NO: 157 (L234A/L235A/P329G; E356K/K392D/D399K/K439E) with light chain SEQ ID NO: 61 (antibody, human IgG1, kappa, L234A L235A) heavy: QVQLQESGPGLVRPSQTLSLTCTVSGYSITSDHAWSWVRQPPGRGLEWIGYISYSGITTYNPSLKSRVTMLRDTSKNQFSLRLSSVTAADTAVYYCARSLARTTAMDYWGQGSLVTVSSASTKGPSVFPLAPSSKSTSGGTAALGCLVKDYFPEPVTVSWNSGALTSGVHTFPAVLQSSGLYSLSSVVTVPSSSLGTQTYICNVNHKPSNTKVDKRVEPKSCDKTHTCPPCPAPEAAGGPSVFLFPPKPKDTLMISRTPEVTCVVVDVSHEDPEVKFNWYVDGVEVHNAKTKPREEQYNSTYRVVSVLTVLHQDWLNGKEYKCKVSNKALGAPIEKTISKAKGQPREPQVYTLPPSRKEMTKNQVSLTCLVKGFYPSDIAVEWESNGQPENNYDTTPPVLKSDGSFFLYSKLTVDKSRWQQGNVFSCSVMHEALHNHYTQESLSLSP light: not shown",–,0%,–,57.4%
"Full-length heavy chain SEQ ID NO: 154 (L234A/L235A/P329G; T394W/F405A) with light chain SEQ ID NO: 61 (antibody, human IgG1, kappa, L234A L235A) heavy: QVQLQESGPGLVRPSQTLSLTCTVSGYSITSDHAWSWVRQPPGRGLEWIGYISYSGITTYNPSLKSRVTMLRDTSKNQFSLRLSSVTAADTAVYYCARSLARTTAMDYWGQGSLVTVSSASTKGPSVFPLAPSSKSTSGGTAALGCLVKDYFPEPVTVSWNSGALTSGVHTFPAVLQSSGLYSLSSVVTVPSSSLGTQTYICNVNHKPSNTKVDKRVEPKSCDKTHTCPPCPAPEAAGGPSVFLFPPKPKDTLMISRTPEVTCVVVDVSHEDPEVKFNWYVDGVEVHNAKTKPREEQYNSTYRVVSVLTVLHQDWLNGKEYKCKVSNKALGAPIEKTISKAKGQPREPQVYTLPPSREEMTKNQVSLTCLVKGFYPSDIAVEWESNGQPENNYKTWPPVLDSDGSFALYSKLTVDKSRWQQGNVFSCSVMHEALHNHYTQKSLSLSP light: not shown",–,0%,–,62.8%
"Full-length heavy chain SEQ ID NO: 155 (L234A/L235A/P329G; T366W/L368A/Y407V) with light chain SEQ ID NO: 61 (antibody, human IgG1, kappa, L234A L235A) heavy: QVQLQESGPGLVRPSQTLSLTCTVSGYSITSDHAWSWVRQPPGRGLEWIGYISYSGITTYNPSLKSRVTMLRDTSKNQFSLRLSSVTAADTAVYYCARSLARTTAMDYWGQGSLVTVSSASTKGPSVFPLAPSSKSTSGGTAALGCLVKDYFPEPVTVSWNSGALTSGVHTFPAVLQSSGLYSLSSVVTVPSSSLGTQTYICNVNHKPSNTKVDKRVEPKSCDKTHTCPPCPAPEAAGGPSVFLFPPKPKDTLMISRTPEVTCVVVDVSHEDPEVKFNWYVDGVEVHNAKTKPREEQYNSTYRVVSVLTVLHQDWLNGKEYKCKVSNKALGAPIEKTISKAKGQPREPQVYTLPPSREEMTKNQVSLWCAVKGFYPSDIAVEWESNGQPENNYKTTPPVLDSDGSFFLVSKLTVDKSRWQQGNVFSCSVMHEALHNHYTQKSLSLSP light: not shown",–,0%,–,63.9%

# The next lines start with results.
Heteromultimer (%) [2],Heteromultimer (%) [4],Binder,Homo full-length heavy chain (%) [1],Homo full-length heavy chain (%) [3]
0%,–,"Full-length heavy chain with M252Y/S254T/T256E (enhance FcRn binding) and T366W/L368A/Y407V (SEQ ID NO: 145), with light chain SEQ ID NO: 61 (antibody, human IgG1, kappa) heavy: QVQLQESGPGLVRPSQTLSLTCTVSGYSITSDHAWSWVRQPPGRGLEWIGYISYSGITTYNPSLKSRVTMLRDTSKNQFSLRLSSVTAADTAVYYCARSLARTTAMDYWGQGSLVTVSSASTKGPSVFPLAPSSKSTSGGTAALGCLVKDYFPEPVTVSWNSGALTSGVHTFPAVLQSSGLYSLSSVVTVPSSSLGTQTYICNVNHKPSNTKVDKRVEPKSCDKTHTCPPCPAPELLGGPSVFLFPPKPKDTLYITREPEVTCVVVDVSHEDPEVKFNWYVDGVEVHNAKTKPREEQYNSTYRVVSVLTVLHQDWLNGKEYKCKVSNKALPAPIEKTISKAKGQPREPQVYTLPPSREEMTKNQVSLWCAVKGFYPSDIAVEWESNGQPENNYKTTPPVLDSDGSFFLVSKLTVDKSRWQQGNVFSCSVMHEALHNHYTQKSLSLSP light: not shown",62.3%,–
0%,–,"Full-length heavy chain with M252Y/S254T/T256E (enhance FcRn binding) and Q347R/K360E/D399V/F405T/K409W (SEQ ID NO: 146), with light chain SEQ ID NO: 61 (antibody, human IgG1, kappa) heavy: QVQLQESGPGLVRPSQTLSLTCTVSGYSITSDHAWSWVRQPPGRGLEWIGYISYSGITTYNPSLKSRVTMLRDTSKNQFSLRLSSVTAADTAVYYCARSLARTTAMDYWGQGSLVTVSSASTKGPSVFPLAPSSKSTSGGTAALGCLVKDYFPEPVTVSWNSGALTSGVHTFPAVLQSSGLYSLSSVVTVPSSSLGTQTYICNVNHKPSNTKVDKRVEPKSCDKTHTCPPCPAPELLGGPSVFLFPPKPKDTLYITREPEVTCVVVDVSHEDPEVKFNWYVDGVEVHNAKTKPREEQYNSTYRVVSVLTVLHQDWLNGKEYKCKVSNKALPAPIEKTISKAKGQPREPRVYTLPPSREEMTENQVSLTCLVKGFYPSDIAVEWESNGQPENNYKTTPPVLVSDGSFTLYSWLTVDKSRWQQGNVFSCSVMHEALHNHYTQKSLSLSP light: not shown",63.3%,–
0%,–,"Full-length heavy chain with M252Y/S254T/T256E (enhance FcRn binding) and T394W/F405A (SEQ ID NO: 144), with light chain SEQ ID NO: 61 (antibody, human IgG1, kappa) heavy: QVQLQESGPGLVRPSQTLSLTCTVSGYSITSDHAWSWVRQPPGRGLEWIGYISYSGITTYNPSLKSRVTMLRDTSKNQFSLRLSSVTAADTAVYYCARSLARTTAMDYWGQGSLVTVSSASTKGPSVFPLAPSSKSTSGGTAALGCLVKDYFPEPVTVSWNSGALTSGVHTFPAVLQSSGLYSLSSVVTVPSSSLGTQTYICNVNHKPSNTKVDKRVEPKSCDKTHTCPPCPAPELLGGPSVFLFPPKPKDTLYITREPEVTCVVVDVSHEDPEVKFNWYVDGVEVHNAKTKPREEQYNSTYRVVSVLTVLHQDWLNGKEYKCKVSNKALPAPIEKTISKAKGQPREPQVYTLPPSREEMTKNQVSLTCLVKGFYPSDIAVEWESNGQPENNYKTWPPVLDSDGSFALYSKLTVDKSRWQQGNVFSCSVMHEALHNHYTQKSLSLSP light: not shown",69.8%,–

# From patent publication US20260217835A1 (published 2026)
